Six molecules from patent US20230250557A1 (published 2023) can be followed below.

The chains are these.
B1: 1-12E (designed binder)
chain: GSHMVSGKIVVIGSSTGGPRSLDMIIPNLPKNFPAPIVVVQHGDGWYGGGAVGTKSLAQRLDSTSELTVKEAEDGEEVKPGFVYIAPGDFHLGLKAQNGKVFFFLDKSGGSYTGEWTWGVRPAVDFTLDKAAEIYKEKTIAVILTGGARYGDLRGGDGTKGAFKVKFYGGTVIAEDKETSVVFGMPKSVIEEGYADYVLPAYKIPEKLIELV
notes: CheBc scaffold clone from modified pQE-80L in E. coli, purified on cobalt resin, detected with anti-FLAG
B2: 1-1B (designed binder)
chain: GSHMVSGKIVVIGSSTGGPRSLDMIIPNLPKNFPAPIVVVQHGEGWYGGGAVGTKSLAQRLDSTSELTVKEAEDGEEVKPGFVYIAPGDFHLGLKAQNGKVFFFLDKSGRGLRGGWSWGVRPAVDFTLDKAAEIYKEKTIAVILTGGAATGSSNGGDGTKGAFKVKFYGGTVIAEDKETSVVFGMPKSVIEEGYADYVLPAYKIPEKLIELV
notes: as for B1
B3: 1-12C (designed binder)
chain: GSHMVSGKIVVIGSSTGGPRSLDMIIPNLPKNFPAPIVVVQHGWALNGRYTLGTKSLAQRLDSTSELTVKEAEDGEEVKPGFVYIAPGDFHLGLKAQNGKVFFFLDKSGARDRGREWYGVRPAVDFTLDKAAEIYKEKTIAVILTGGYWEGDYAGGDGTKGAFKVKFYGGTVIAEDKETSVVFGMPKSVIEEGYADYVLPAYKIPEKLIELV
notes: as for B1
B4: 4-7D (designed binder)
chain: GSHMVSGKIVVIGSSTGGPRSLDMIIPNLPKNFPAPIVVVQHGHDWSGSSGWGTKSLAQRLDSTSELTVKEAEDGEEVKPGFVYIAPGDFHLGLKAQNGKVFFFLDKSGWVSWGWTNNGVRPAVDFTLDKAAEIYKEKTIAVILTGGRYEGVLLGGDGTKGAFKVKFYGGTVIAEDKETSVVFGMPKSVIEEGYADYVLPAYKIPEKLIELV
notes: as for B1
B5: 3-7E (designed binder)
chain: GSHMVSGKIVVIGSSTGGPRSLDMIIPNLPKNFPAPIVVVQHGYYWGSWGYEGTKSLAQRLDSTSELTVKEAEDGEEVKPGFVYIAPGDFHLGLKAQNGKVFFFLDKSGRVVDGWDYDGVRPAVDFTLDKAAEIYKEKTIAVILTGGWDTGSELGGDGTKGAFKVKFYGGTVIAEDKETSVVFGMPKSVIEEGYADYVLPAYKIPEKLIELV
notes: as for B1
B6: 3-8A (designed binder)
chain: GSHMVSGKIVVIGSSTGGPRSLDMIIPNLPKNFPAPIVVVQHGSWVDGSWTWGTKSLAQRLDSTSELTVKEAEDGEEVKPGFVYIAPGDFHLGLKAQNGKVFFFLDKSGWWNGGYWVTGVRPAVDFTLDKAAEIYKEKTIAVILTGGVNLGLYNGGDGTKGAFKVKFYGGTVIAEDKETSVVFGMPKSVIEEGYADYVLPAYKIPEKLIELV
notes: as for B1

One experiment deals with T1, Biotinylated human PD-L1 antigen comprising a human IgG1 Fc domain (Acro Biosystems) (human, UniProt Q9NZQ7 19-238, biotinylated (site not stated)).
T1 construct: The ELISA text says only 'antigens' were coated at 1 ug/mL; also called PD-L1 target; not shown: human IgG1 Fc domain
T1 sequence (Q9NZQ7 19-238 limits assumed): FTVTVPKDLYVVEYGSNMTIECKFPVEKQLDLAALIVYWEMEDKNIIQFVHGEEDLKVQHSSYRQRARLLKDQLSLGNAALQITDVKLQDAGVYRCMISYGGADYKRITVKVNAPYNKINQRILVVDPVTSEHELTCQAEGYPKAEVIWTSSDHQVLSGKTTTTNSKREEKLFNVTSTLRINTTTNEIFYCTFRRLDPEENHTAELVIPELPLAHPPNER
In words: ELISA, antigen coated at 1 ug/mL, purified scaffold titrated, anti-FLAG-HRP detection. On the procedure: (§1) Affinity of binding of individual scaffolds of the invention was estimated by ELISA. Antigens were dissolved in PBS to 1 μg/mL and 100 μl coated onto the surface of each well of a 96 well MaxiSorp Plate (Nunc) at 4° C. overnight. The next day, the wells of the MaxiSorp plate were washed with PBST buffer (PBS containing 0.05% Tween-20) and the wells blocked with 400 μl per well of 5% (w/v) skim milk powder in PBST for 2 hours. This blocking buffer was then discarded and the wells of the plate washed with PBST. […] The diluted target binding scaffold proteins were then transferred to the antigen coated MaxiSorp plate and allowed to bind to the immobilized blocked antigens for 2 hours at room temperature with gentle shaking. Following this, the diluted target binding scaffold protein solution was discarded and the wells of the MaxiSorp plate were washed 4 times with PBST. Then, 100 μl of a 1/4000 diluted solution of anti-FLAG M2 HRP conjugated antibody (Sigma) in PBST containing 2.5% (w/v) skim milk was added to each well and allowed to bind for 1 hour. This was then discarded and the plate washed 4 times with PBST. Then 100 μl of ELISA POD Substrate TMB Kit (HYPER) detection reagent (Nacalai Tesque, Japan) was added per well and the color development reaction stopped by addition of 100 μl of 1M phosphoric acid. Absorbance of each well was read at 450 nm wavelength. The EC₅₀ of binding was calculated from four parameter logistic plots of the measured absorbance values (FIGS. 17A-17B).
For orientation: ELISA stands for enzyme-linked immunosorbent assay.
In general, EC50 refers to the concentration that produces a half-maximal response. A lower EC50 goes with higher potency in that assay. B1 yielded an EC50 of 165 nM.
The molecule B2 came in with an EC50 of 108 nM.
The same measure, in the same setting: for B3 the value was 91 nM.

For the next experiment, the target named is T2, Biotinylated human HER2 antigen comprising a portion of the HER2 extracellular domain (Acro Biosystems) (human, UniProt P04626 23-652, biotinylated (site not stated)).
T2 construct: extracellular domain; The ELISA text says only 'antigens' were coated; also called HER2 target
The description is as above. On the procedure:
as §1
The molecule B4 registered an EC50 of 65 nM.
The molecule B5 returned an EC50 of 22 nM. Compared with the last molecule, the EC50 is about 3-fold lower.
For the molecule B6, the EC50 was found to be 4 nM. This EC50 is about 5.5-fold lower than that of the molecule before.
